Experiments:
[1] = target: T1, Human PD1 (50AFR), [VEGF leader]-Sino-Bio-PD-1_H-[His9G] (human, UniProt Q15116 25-167); test: SPR (Biacore T200 or 4000), antibody captured via anti-human Fc, antigen as analyte
T1 construct: Expressed with a VEGF leader; also called PD-1-His (50AFR)
Method: (§1) Binding affinities were measured using a Biacore T200 or Biacore 4000 biosensor (GE Healthcare, Chicago, Ill.). The following running buffer, 10 mM HEPES, 150 mM NaCl, 0.05% v/v Surfactant P20, 3 mM EDTA (GE Healthcare, BR100669, Chicago, Ill.), was used for immobilization, sample dilution and data collection. All experiments were performed at 25° C. Antigen binding to antibodies captured via an anti-human Fc antibody was measured using a Series S Sensor Chip CM5 (GE Healthcare, 29149603, Chicago, Ill.). An anti-human Fc antibody was immobilized on all surfaces of the chip according to the instructions in the Human Antibody Capture Kit (GE Healthcare, BR100839, Chicago, Ill.) and the Amine Coupling Kit (GE Healthcare, BR100633, Chicago, Ill.). […] After the antigen injections the dissociation of the interaction was monitored for 15 minutes. Between binding cycles the antibody and antigen were removed from the chip with a 30 second injection of 3 M MgCl₂.
(§2) The data were processed and fit using Biacore T200 Evaluation Software version 2.0 or Biacore 4000 Evaluation Software version 1.1 (GE Healthcare, Chicago, Ill.). The data were “double referenced” by subtracting the response from a negative control flowcell and subtracting the response from a buffer injection or the average response from two buffer injections. The data were then fit with the ‘1:1 Binding’ model to determine the association rate constant, kₐ (M⁻¹s⁻¹, where “M” equals molar and “s” equals seconds) and the dissociation rate constant, kd (s⁻¹). These rate constants were used to calculate the equilibrium dissociation constant, KD (M)=[…].

human TIGIT (94AGV) = target: T2, human TIGIT (94AGV) (human, UniProt Q495A1 22-141, limits assumed); test: as above
T2 construct: Lot 94AGV is not described further
T2 sequence (looked up): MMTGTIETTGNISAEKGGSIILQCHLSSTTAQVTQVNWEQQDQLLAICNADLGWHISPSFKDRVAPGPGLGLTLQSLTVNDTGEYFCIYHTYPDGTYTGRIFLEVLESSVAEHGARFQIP
Method: as §1, §2

human LAG-3 (60AXE) = target: T3, human LAG-3 (60AXE) (human, UniProt P18627 23-450, limits assumed); test: as above
T3 construct: Lot 60AXE is not described further
T3 sequence (looked up): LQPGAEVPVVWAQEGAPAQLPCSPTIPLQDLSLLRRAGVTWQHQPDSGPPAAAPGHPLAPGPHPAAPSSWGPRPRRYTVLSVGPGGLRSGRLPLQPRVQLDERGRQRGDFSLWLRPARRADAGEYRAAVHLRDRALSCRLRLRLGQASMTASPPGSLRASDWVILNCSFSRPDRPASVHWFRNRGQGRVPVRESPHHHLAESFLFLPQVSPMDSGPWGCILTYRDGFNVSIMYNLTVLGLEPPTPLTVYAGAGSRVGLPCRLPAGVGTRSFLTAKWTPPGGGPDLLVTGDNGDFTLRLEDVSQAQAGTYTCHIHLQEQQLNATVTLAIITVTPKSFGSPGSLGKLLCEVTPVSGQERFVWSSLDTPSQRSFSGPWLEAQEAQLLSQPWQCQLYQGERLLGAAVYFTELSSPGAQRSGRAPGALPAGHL
Method: as §1, §2

[2] = target: T4, LAG3-His (66AKO), [VEGF leader]-LAG3_H-[His9G] (human, UniProt P18627 23-450); test: SPR sequential antigen injections on captured TsAb; this antigen injected 1st
T4 construct: Expressed with a VEGF leader
T4 sequence (looked up): T3 sequence (looked up)
Method: (§3) Sample pre-mixes were injected to cover all six sequential combinations of the three antigens. Injection of pre-mixes in appropriate order (e.g., pre-mix 1->4->7, premix 2->6->7, premix 3->5->7) helped to maintain antigen activities from first and second injections and near saturation of the occupied sites in case of notable dissociation. On a Biacore T200, the first two injections were made using the dual inject mode and the third was made using normal injection mode (the difference is extra time between second and third injections). It is possible that antigens themselves could self-associate or interact with one another in the pre-mixes but for simplicity of interpretation, we assumed that to be unlikely or insignificant.
(§4) Each subsequent upward shift in the signal upon premix injection indicates binding of an antigen to an unoccupied site. Typical % BC for a fully occupied site can range from ˜70% to ˜120% due to matrix effects, MW variations (e.g., glycosylation), fast dissociation, nonspecific binding, reagent quality (e.g., aggregation), etc. The % BC indicated in the figures show good overall binding capacity for the three antigens with somewhat higher % BC for the first binder.

[3] = target: T1, Human PD1 (50AFR), [VEGF …; test: SPR sequential antigen injections on captured TsAb; this antigen injected 2nd
Method: as §3, §4

[4] = target: T5, TIGIT-His (87AGX), [SLAM Leader]-TIGIT_H-[His9G] (human, UniProt Q495A1 22-141); test: as above
T5 construct: Expressed with a SLAM leader
T5 sequence (looked up): T2 sequence (looked up)
Method: as §3, §4

T1 sequence (Q15116 25-167): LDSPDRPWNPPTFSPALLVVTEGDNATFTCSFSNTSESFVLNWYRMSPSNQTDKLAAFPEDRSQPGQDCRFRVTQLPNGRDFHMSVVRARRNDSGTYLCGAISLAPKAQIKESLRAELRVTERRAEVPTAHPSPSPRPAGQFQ

- Kd [1]: 0.15 nM
- Kd (human TIGIT (94AGV)): 0.64 nM
- Kd (human LAG-3 (60AXE)): 0.0015 nM
- % BC (estimated % binding capacity) [2]: 102%
- % BC (estimated % binding capacity) [3]: 74%
- % BC (estimated % binding capacity) [4]: 90%
B1: Anti-PD-1/LAG-3/TIGIT trispecific antibody (TsAb) (Lot 83BCN or 51AVW) (other)
heavy 1: EVQLVQSGAEVKKPGASVKVSCKASGYTFTSYYLYWVRQAPGQGLEWIGGVNPSNAGTNFNEKFKSRVTLTVDTSISTAYMELSRLRSDDTAVYYCTRRLSHYDGGFDYWGQGTTVTVSSASTKGPSVFPLAPSSKSTSGGTAALGCEVTDYFPEPVTVSWNSGALTSGVHTFPAVLESSGLYSLLSVVTVPSSSLGTQTYICNVNHKPSNTKVDKKVEPKSCDKTHTCPPCPAPEAAGGPSVFLFPPKPKDTLMISRTPEVTCVVVSVSHEDPEVKFNWYVDGVEVHNAKTKPREEQYNSTYRVVSVLTVLHQDWLNGKEYKCKVSNKALPAPIEKTISKAKGQPREPQVYVYPPSRDELTKNQVSLTCLVKGFYPSDIAVEWESNGQPENNYKTTPPVLDSDGSFALVSKLTVDKSRWQQGNVFSCSVMHEALHNHYTQKSLSLSPGGGGSGGGSGGGSGGGSDIQMTQSPSSLSASVGDRVTITCRASEHIYSYLSWYQQKPGKVPKLLIYNAKTLAEGVPSRFSGSGSGTDFTLTISSLQPEDVATYYCQHHFGSPLTFGQGTRLEIKGGSSRSSSSGGGGSGGGGSGSEVQLVQSGAEVKKPGSSVKVSCKASGYTFSSYVMHWVRQAPGQGLEWIGYIDPYNDGAKYAQKFQGRVTLTSDKSTSTAYMELSSLRSEDTAVYYCARGGPYGWYFDVWGQGTTVTVSS
light 1: DIVMTQTPLSLSVTPGQPASISCRASKSVSTSGFSYLHWYLQKPGQPPQLLIFLSKYRSSGVPDRFSGSGSGTDFTLKISRVEAEDVGVYYCSQAYHLPLTFGQGTKLEIKRTVAAPSVFIFPPSDERLKSGTASVVCLLNNFYPREAKVQWKVDNALQSGNSQESVTEQDSKDSTYSLSSRLTLSKADYEKHKVYACEVTHQGLSSPVTKSFNRGEC
heavy 2: QMQLVQSGPEVKKPGTSVKVSCKASGYTFTDYNVDWVRQARGQRLEWIGDINPNDGGTIYAQKFQERVTITVDKSTSTAYMELSSLRSEDTAVYYCARNYRWFGAMDHWGQGTTVTVSSASTKGPSVFPLAPSSKSTSGGTAALGCLVKDYFPEPVTVSWNSGALTSGVHTFPAVLQSSGLYKLSSVVTVPSSSLGTQTYICNVNHKPSNTKVDKKVEPKSCDKTHTCPPCPAPEAAGGPSVFLFPPKPKDTLMISRTPEVTCVVVSVSHEDPEVKFNWYVDGVEVHNAKTKPREEQYNSTYRVVSVLTVLHQDWLNGKEYKCKVSNKALPAPIEKTISKAKGQPREPQVYVLPPSRDELTKNQVSLLCLVKGFYPSDIAVEWESNGQPENNYLTWPPVLDSDGSFFLYSKLTVDKSRWQQGNVFSCSVMHEALHNHYTQKSLSLSPGGGGSGGGSGGGSGGGSDIQMTQSPSSLSASVGDRVTITCRASEHIYSYLSWYQQKPGKVPKLLIYNAKTLAEGVPSRFSGSGSGTDFTLTISSLQPEDVATYYCQHHFGSPLTFGQGTRLEIKGGSSRSSSSGGGGSGGGGSGSEVQLVQSGAEVKKPGSSVKVSCKASGYTFSSYVMHWVRQAPGQGLEWIGYIDPYNDGAKYAQKFQGRVTLTSDKSTSTAYMELSSLRSEDTAVYYCARGGPYGWYFDVWGQGTTVTVSS
light 2: DIVMTQTPLSLSVTPGQPASISCKASQSLDYEGDSDMNWYLQKPGQPPQLLIYGASNLESGVPDRFSGSGSGTDFTLKISRVEAEDVGVYYCQQSTEDPRTFGGGTKVEIKRTVAAPSVFIFPPSDEELKSGTATVVCLLNNFYPREAKVQWKVDNALQSGNSQESVTEQDSKDSTYSLSSYLELSKADYEKHKVYACEVTHQGLSSPVTKSFNRGEC
notes: Trispecific heterodimeric IgG1 / kappa; It has one site for PD1, one for LAG3 and two for TIGIT; also called Hz x Hu [PD-1]; [TIGIT]; [LAG3]; TsAb; Anti-human PD1/TIGIT/LAG3 TsAb
